Data on one protein can be found in publication PMC4169556, “Isolation of Dihydroflavonol 4-Reductase cDNA Clones from Angelonia x angustifolia and Heterologous Expression as GST Fusion Protein in Escherichia coli” (PLoS ONE, 2014).

Substrate in series [1]: O=C1c2c(O)cc(O)cc2O[C@H](c2ccc(O)c(O)c2)[C@H]1O
Description: cells, lysate or membranes. It counts as biochemical, Angelonia angustifolia. Conditions: NADPH, pH 6.5, 25 °C (standard assay), yeast protein fraction, labelled compound.

Substrate in series [2]: O=C1c2c(O)cc(O)cc2O[C@H](c2cc(O)c(O)c(O)c2)[C@H]1O
Description: cells, lysate or membranes. It is filed as biochemical, Angelonia angustifolia. Conditions: NADPH, pH 6.5, 25 °C (standard assay), yeast protein fraction, labelled compound.

B1: Ang.DFR2 (Angelonia angustifolia) (protein)
chain: METTATQPPPPSSAAAVPATVCVTGAAGFIGSWLVMKLLQRGYNVRATVRDPGNLKKIKHLTQLPKADTNLTLWKADLMEEASFDEAIEGCQGVFHLATPMEFDSKDPENEVIKPTIEGMMSIIRSCAKAKTVEKVIFTTSAGTLNVEEHQKPFYDETSWSDLDFIYSKKMTGWMYFVSKYLAEKQAVEAAKLNNIEFISIIPPVVVGPFINPAFPPSLVTALSPITGNEAHYTIMKQGQFVHLDDICEAHIFLFEHPKADGRYICSSHDATIYDIARLIRDKWPEYNVPMEFKGIDKDIPVVRFSSKKLTSMGFKFKYSLEDMYRGAIETCREKGLLPYSTHNQSNGEKKESTLQSLEKHSDDQEKVLEKRVNGRLDKQFEEQKKELLPIREEKHTNGSLEKCSDDQAKVLLPLPEEKQTNGSLEKHVMINIKTCE
notes: full-length ORF, 437 residues; pYES2.1/V5-His-TOPO in S. cerevisiae INVSc1, protein fraction, not purified
As usually defined, the Km is the concentration of substrate that gives half-maximal velocity. On to B1, for which the Km is recorded as 11 µM in series [1] and 6.5 µM in series [2].
